The labels stand for the following.
B1: Azoarcus group I ribozyme (parent)
chain: GUGCCUUGCGCCGGGAAACCACGCAAGGGAUGGUGUCAAAUUCGGCGAAACCUAAGCGCCCGCCCGGGCGUAUGGCAACGCCGAGCCAAGCUUCGGCGCCUGCGCCGAUGAAGGUGUAGAGACUAGACGGCACCCACCUAAGGCAAACGCUAUGGUGAAGGCAUAGUCCAGGGAGUGGCGAAAGUCACACAAACCGG

The variants in this data set derive from B1. Nature of the data set: reverse-splicing fitness (ratio to wild type); higher = more active; in vitro selection; Mg2+ level not given. The gist of the method: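 An in vitro group I ribozyme library with randomized positions was T7-transcribed and gel-purified. In triplicate, 10 pmol RNA in EPPS pH 7.5 was reacted with 50 pmoles of a 30-nt RNA substrate for 1 h at 37 °C across several added MgCl2 levels (1–48 mM), then stopped with EDTA. Products were reverse transcribed from a substrate-complementary primer, PCR-amplified and sequenced (HiSeq 4000). Fitness is a variant's read proportion after selection over that before, normalised to wild type.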
Take C82U A111C A145G C169U U176C: the reverse-splicing fitness was 0.0148.

As for C82U A111C A145G C169U U176A, the reverse-splicing fitness is 0.0178.

Turning to C82U A111C A145G C169U U176G, the reverse-splicing fitness is 0.00688.

Regarding C82U A111C A145U C169A U176C, the reverse-splicing fitness amounted to 0.0139.

C82U A111C A145U C169A U176G: the reverse-splicing fitness amounted to 0.00703.

On to C82U A111C A145U C169A U176A, for which the reverse-splicing fitness turned out to be 0.0129.

As to C82U A111C A145C U176C, the reverse-splicing fitness was found to be 0.0915.

As to C82U A111C A145C U176G, the reverse-splicing fitness was found to be 0.0186.

In the case of C82U A111C A145C U176A, the reverse-splicing fitness is 0.0676.

Consider C82U A111C A120U C150G C169G U176G, for which the reverse-splicing fitness amounted to 0.00254.

Turning to C82U A111C A120U C150G C169G U176A, the reverse-splicing fitness stood at 0.00425.

Regarding C82U A111C A120U C150G C169G U176C, the reverse-splicing fitness is 0.00317.

In the case of C82U A111C A145U C150U C169G U176C, the reverse-splicing fitness came to 0.0165.

Take C82U A111C A145U C150U C169G U176A: the reverse-splicing fitness came to 0.0121.

C82U A111C A145U C150U C169G U176G: the reverse-splicing fitness is 0.00709.

As for C82U A111C A145U C150U C169G, the reverse-splicing fitness is 0.00836.

On to C82U A111C A145U C150U C169U, for which the reverse-splicing fitness is 0.0107.

With C82U A111C A145U C150U C169A, the reverse-splicing fitness came out at 0.00889.

Take C82U A111C A145C C150U C169A U176G: the reverse-splicing fitness came to 0.00687.

For the variant C82U A111C A145C C150U C169A U176C, the reverse-splicing fitness is 0.01.

On to C82U A111C A145C C150U C169A U176A, for which the reverse-splicing fitness worked out at 0.011.

Turning to C82U A111C A120U A145U C150G C169G U176G, the reverse-splicing fitness was 0.0024.

Take C82U A111C A120U A145U C150G C169G U176C: the reverse-splicing fitness amounted to 0.00224.

As for C82U A111C A120U A145U C150G C169G U176A, the reverse-splicing fitness came out at 0.00332.

In the case of C82U A111C A145C C150U C169G U176C, the reverse-splicing fitness came to 0.0168.

Consider C82U A111C A145C C150U C169G U176G, for which the reverse-splicing fitness is 0.0077.

For C82U A111C A145C C150U C169G U176A, the reverse-splicing fitness was 0.0257.

C82U A111C A120U A145U C150G C169A: the reverse-splicing fitness stood at 0.00391.

In the case of C82U A111C A120U A145U C150G C169G, the reverse-splicing fitness came out at 0.00306.

On to C82U A111C A120U A145U C150G C169U, for which the reverse-splicing fitness came to 0.00311.

Take C82U A111C A145G C150A C169U U176A: the reverse-splicing fitness stood at 0.0144.

For the variant C82U A111C A145G C150A C169U U176C, the reverse-splicing fitness is 0.0157.

On to C82U A111C A145G C150A C169U U176G, for which the reverse-splicing fitness worked out at 0.00739.

C82U A111C A120U A145U C150G C169A U176A: the reverse-splicing fitness is 0.00336.

In the case of C82U A111C A120U A145U C150G C169A U176C, the reverse-splicing fitness amounted to 0.00322.

In the case of C82U A111C A120U A145U C150G C169A U176G, the reverse-splicing fitness came out at 0.00233.

Consider C82U A111C A145C C169U U176C, for which the reverse-splicing fitness turned out to be 0.0113.

Turning to C82U A111C A145C C169U U176A, the reverse-splicing fitness amounted to 0.0157.

For the variant C82U A111C A145C C169U U176G, the reverse-splicing fitness was found to be 0.00632.

With C82U A111C A145U C150G C169G U176G, the reverse-splicing fitness was determined as 0.00703.

On to C82U A111C A145U C150G C169G U176A, for which the reverse-splicing fitness was 0.00648.

On to C82U A111C A145U C150G C169G U176C, for which the reverse-splicing fitness was determined as 0.00532.

On to C82U A111C A120U C150G U176G, for which the reverse-splicing fitness worked out at 0.00291.

On to C82U A111C A120U C150G U176C, for which the reverse-splicing fitness was determined as 0.00605.

With C82U A111C A120U C150G U176A, the reverse-splicing fitness was determined as 0.0035.

On to C82U A111C A145C C150A U176G, for which the reverse-splicing fitness was determined as 0.00685.

As for C82U A111C A145C C150A U176A, the reverse-splicing fitness was determined as 0.0114.

With C82U A111C A145C C150A U176C, the reverse-splicing fitness is 0.0145.

Turning to C82U A111C A145C C150U C169G, the reverse-splicing fitness is 0.00727.

Take C82U A111C A145C C150U C169U: the reverse-splicing fitness is 0.00891.

As for C82U A111C A145C C150U C169A, the reverse-splicing fitness was 0.00854.

On to C82U A111C A120U C169U, for which the reverse-splicing fitness came to 0.00529.

For C82U A111C A120U C169A, the reverse-splicing fitness is 0.00322.

For the variant C82U A111C A120U C169G, the reverse-splicing fitness came to 0.00401.

As to C82U A111C A120U A145U C150U U176C, the reverse-splicing fitness stood at 0.0089.

Turning to C82U A111C A120U A145U C150U U176A, the reverse-splicing fitness was found to be 0.00562.

For C82U A111C A120U A145U C150U U176G, the reverse-splicing fitness stood at 0.0027.

Turning to C82U A111C A120U A145U C150A C169G U176A, the reverse-splicing fitness came out at 0.00239.

For the variant C82U A111C A120U A145U C150A C169G U176G, the reverse-splicing fitness is 0.00205.

C82U A111C A120U A145U C150A C169G U176C: the reverse-splicing fitness was 0.003.

C82U A111C A120U C150U C169A U176C: the reverse-splicing fitness amounted to 0.00372.

As to C82U A111C A120U C150U C169A U176A, the reverse-splicing fitness was 0.00486.

Take C82U A111C A120U C150U C169A U176G: the reverse-splicing fitness is 0.00291.

As to C82U A111C A145G C150U C169A, the reverse-splicing fitness amounted to 0.00963.

As to C82U A111C A145G C150U C169G, the reverse-splicing fitness was 0.00802.

C82U A111C A145G C150U C169U: the reverse-splicing fitness amounted to 0.00955.

On to C82U A111C A145G C150A C169A U176A, for which the reverse-splicing fitness is 0.0149.

As for C82U A111C A145G C150A C169A U176C, the reverse-splicing fitness came out at 0.0197.

C82U A111C A145G C150A C169A U176G: the reverse-splicing fitness was 0.00838.

Take C82U A111C A120U A145U C150U C169U: the reverse-splicing fitness stood at 0.0037.

Turning to C82U A111C A120U A145U C150U C169G, the reverse-splicing fitness is 0.00301.

In the case of C82U A111C A120U A145U C150U C169A, the reverse-splicing fitness stood at 0.00252.

With C82U A111C A145U C150G C169U U176C, the reverse-splicing fitness is 0.0119.

As to C82U A111C A145U C150G C169U U176A, the reverse-splicing fitness amounted to 0.00807.

In the case of C82U A111C A145U C150G C169U U176G, the reverse-splicing fitness came out at 0.00671.

As to C82U A111C A145C C150U U176G, the reverse-splicing fitness is 0.00938.

Regarding C82U A111C A145C C150U U176A, the reverse-splicing fitness stood at 0.0229.

C82U A111C A145C C150U U176C: the reverse-splicing fitness came out at 0.0358.

Take C82U A111C A120U C150A C169G U176G: the reverse-splicing fitness was 0.00237.

Regarding C82U A111C A120U C150A C169G U176C, the reverse-splicing fitness was 0.00392.

For C82U A111C A120U C150A C169G U176A, the reverse-splicing fitness turned out to be 0.00492.

Consider C82U A111C A120U C150A, for which the reverse-splicing fitness worked out at 0.0078.

For the variant C82U A111C A120U C150G, the reverse-splicing fitness turned out to be 0.00681.

Source of the values: the RNAGym collection of RNA variant scans (doi:10.1093/molbev/msab373).
